According to publication PMC4010494:

Target: chicken lysozyme (chicken) (UniProt P00698)
Assay: far-Western, overlay or dot blot; proteins resolved by SDS-PAGE and transferred to PVDF; biotinylated CaM 1:2400, 30 min at room temperature in TBS-T with 1 mM CaCl2; VectaStain, chemi-luminescence

fold lower CaM binding signal than for CaMKII: 500 fold
Substance: biotinylated calmodulin (CaM) (from UniProt P0DP23 1-149) (natural protein; other documents disagree on this pair)
